Laboratory results reported in PMC10460880, “Cathepsin K‐Activated Probe for Fluoro‐Photoacoustic Imaging of Early Osteolytic Metastasis” (Advanced Science, 2023).

What was measured:
[1] = Renal clearance efficiency study; type: in vivo, BALB/c nude mice; conditions: mice, i.v. 50 μM, 200 μL; urine, UV absorbance at 615 nm; n = 3
Experimental: Bone marrow toxicity analysis. The bone marrow toxicity of CTSK-APPA and CTSK-APP was assessed by blood analyses in mice. SPF grade 4-week-old BALB/c nude mice were intravenously injected with CTSK-APPA(50 μM, 200 μL) or saline (200 μL). The blood samples were collected in anticoagulant tubes at 24 h post-injection and stored at 4°C. The red blood count (RBC) and white blood count (WBC) were further measured.
Renal clearance efficiency studies. SPF grade 4-week-old BALB/c nude mice were intravenously injected with CTSK-APPA or CTSK-APP (50 μM, 200 μL) and placed in metabolic cages. The urine was collected at 3, 6, and 24 h post-injection, and then centrifuged at 5000 r.p.m. for 5 min. The supernatants containing excreted probes were quantified by using a UV-vis absorption spectrometer. […]
In vivo Bioluminescence, DR, CT, and MR imaging. […] Then BL imaging was recorded on an IVIS Spectrum imaging system at 10 min post-injection under anesthesia using isoflurane. All data were analyzed with the Living Image software. DR, CT, and MR imaging were recorded on an IVIS Spectrum imaging system, a single-photon emission computed tomography imaging system, and a preclinical magnetic resonance solution system, respectively.
Real-time tumor imaging. […] Fluorescence and PA images were acquired at 0, 1, 2, 4, 8, 12, and 24 h post-injection. […]
Histology. […] Images were captured by using a fluorescence microscope. […]

[2] = test system: MDA-MB-231/Luc-induced osteolytic metastasis; assay: Real-time NIR fluorescence and PA imaging of osteolytic metastasis; type: in vivo, BALB/c nude mice; conditions: i.v. 50 μM, 200 μL; imaged 0-24 h; n = 3
Experimental: page 5: PS. RAW 264.7 cells and BMMs were maintained in an atmosphere of 5% CO2 and 95% humidified air at 37 °C. The medium was changed every day. Cell cytotoxicity assay. MDA-MB-231/Luc and RAW 264.7 cells were seeded in 96-well plates (5×10^3 cells per well) for 24 h and then incubated with CTSK-APPA or CTSK-APP (5, 10, 20, 50 μM) or saline for 24 h. The medium was removed and cells were incubated with CCK-8 (0.5 mg/mL) for another 1 h. The absorbance of the mixture at 450 nm was measured by using a microplate reader. Cell viability was expressed by the ratio of the absorbance of the cells incubated with the probes to that of the cells incubated with culture medium only. In vitro osteoclast differentiation. Bone marrow-derived macrophages were isolated from the femurs and tibias of 4-week-old C57BL/6J mice and cultured in a complete medium containing M-CSF (30 ng/mL) for 4 days. […] Fluorescence images were captured by using the IVIS Spectrum imaging system with excitation at 660 ± 10 nm and emission at 710 ± 10 nm. […] The bone marrow toxicity of CTSK-APPA and CTSK-APP was assessed by blood analyses in mice. […] The red blood count (RBC) and white blood count (WBC) were further measured. […] The supernatants containing excreted probes were quantified by using a UV-vis absorption spectrometer. […]

Cbz‐Leu‐Arg‐OH [CTSK-APPA]
renal clearance efficiency 24 h post-injection [1]: 58.4%
time of maximum NIR fluorescence and PA signal post-injection [2]: 4 h
